# Where two headings read alike, the source gives them in different places.
# B1: chimera D3: IGFBP3 with IGFBP3 linker deletion 3-Fc, SEQ ID NO: 12 (protein)
# chain: MSEVPVARVWLVLLLLTVQVGVTAGGASSAGLGPVVRCEPCDARALAQCAPPPAVCAELVREPGCGCCLTCALSEGQPCGIYTERCGSGLRCQPSPDEARPLQALLDGRGLCVNASAVSRPAPPAPGNASESEEDRSAGSVESPSVSSTHRVSDPKFHPKGHAKVDYESQSTDTQNFSSESKRETEYGPCRREMEDTLNHLKFLNVLSPRGVHIPNCDKKGFYKKKQCRPSKGRKRGFCWCVDKYGQPLPGYTTKGKEDVHCYSMQSKVECPPCPAPPVAGPSVFLFPPKPKDQLMISRTPEVTCVVVDVSHEDPEVKFNWYVDGVEVHNAKTKPREEQYNSTYRVVSVLTVLHQDWLNGKEYKCKVSNKGLPSSIEKTISKAKGQPREPQVYTLPPSREEMTKNQVSLTCLVKGFYPSDIAVEWESNGQPENNYKTTPPVLDSDGSFFLYSKLTVDKSRWQQGNVFSCSVMHEGLHNHYTQKSLSLSPGK
# Legend:
# IGF-1 = target: T1, IGF-1 (Homo sapiens, UniProt P05019); assay: Biacore binding to IGF-1; settings: experiment 4-79
# T1 construct: purchased R&D Sciences or SinoBiologicals
# Procedure: Biacore binding was performed at David Myszka's laboratory at the University of Utah or at the Genomic Research Center at Academia Sinica. Surfaces of binding protein chimera were made via chemical immobilization on a CM4 chip using standard amine coupling chemistry. […] Excess surface carboxyl activated sites on all four flow cells was blocked using the doubly positively charged species ethylenediamine. Binding experiments (but not immobilizations) in HBS-P (10 mM HEPES pH 7.4, 150 mM NaCl, 0.05% P20), The HBS-P was supplemented with BSA at 0.2 mg/mL, or HBS-P was supplemented with 500 mM NaCl (650 mM NaCl, final concentration). Analytes were also reconstituted in the corresponding buffer. All experiments were performed at 25° C. 1/150 dilutions of phosphoric acid were used to regenerate IGFBP3-Fc surfaces and a sequence of 3 M MgCl2 followed by 5 M GuCl was used to regenerate surfaces immobilized with growth factor. Dissociation constants reported below used immobilized binding protein unless noted. Differences between binding constants may be expected between growth factor immobilization and chimera immobilization.
# hep3B cells [1] = assay: hep3B proliferation assay; format: cell-based, human; settings: for EC50: FIG. 11C, read-out: ECK for FBS-induced proliferation; for IC50: Table 10
# Procedure: (§1) For the proliferation assay, cells except for HUVEC were seeded at a density of 1,000 to 6,000 in 96 wells in an assay buffer of DMEM/F12 plus 0.2% BSA and 10 ug/ml transferrin. Chemical inhibitors were added after 16-20 hours after plating; IGF-1 or other growth factors or test chimeras in assay buffer were added at the time of plating or 16-20 hours after plating. 5,000 HUVEC ells were plated in poly-L-lysine coated 96 wells in M199 with 1%/FBS and HEPES. After 3 to 4 days of culture, growth was determined by incubating cells with Alamar blue for 4 to 6 hours and then the fluorescence (RFU) at 544/590 nm was read. For long term proliferation assays, cells were plated in the growth media with 5% or 10% FBS at densities of 500 to 10,000 cells per cm^2 growth area and grown for 7 to 21 days. Inhibitors and effectors were added 1-4 days after plating. Cells were exposed to cisplatin or gemcitabine for two days. Medium was renewed twice weekly. At completion, cells were fixed and then stained with Giemsa.
# The human hepatoma cell line hep3B could be stimulated by many growth factors including IGF-1, IGF-2, HGF, bFGF, VEGF, and neuregulin.
# [2] = estimated; reference 26; cited from earlier work
# HT29 cells = assay: HT29 proliferation assay; format: cell-based, human
# Procedure: (§2) MCF-7 cells (a breast cancer cell line) were maintained in MEM (GIBCO) plus insulin and NEAA and 10% FBS (Hyclone).
# as §1
# The combination of drug (erlotinib and vemurafenib in hep3b and HT29 cells, respectively) and chimera can be synergistic; so, in addition to enhancing the inhibition, the chimera addition may also lower drug concentration requirements and reduce side effects.
# [3] = tested on: A549 lung carcinoma cells; assay: A549 proliferation assay; format: cell-based
# Procedure: as §2, §1
# Since the A549 cell line contains a KRAS mutation, it is expected that A549 cells be resistant to TKIs such as AZD9291 and erlotinib. MEK inhibitors such as trametinib were designed to target the RAS/MEK/ERK pathway. […]
# PC-9 cells = assay: PC-9 proliferation and clonal density assays; format: cell-based, human
# Procedure: as §2, §1
# Proliferation assays at clonal densities allows measurement of these DTPs. PC-9 cells are a human non-small cell lung cancer line with a EGFR deletion with high sensitivity to EGFR TKI's (24).
# PC-91R = PC-91R gefitinib-resistant cell proliferation; format: cell-based; settings: FIG. 24A, FIG. 24B
# Procedure: as §1
# One mechanism of EGFR TKI resistance is the transition from an epithelial to mesenchymal phenotype (16). […] Consequently, a combination of chimera D3 and TKI may limit the resistance caused by epithelial to mesenchymal transition.
# HUH7 = HUH7 survival and growth with TKI; format: cell-based, human; settings: FIG. 21
# Procedure: as §2, §1
# (§3) The addition of chimera D3 to gefitinib reduced this number by about 100-fold.
# A431 = A431 survival and growth with TKI; format: cell-based, human; settings: FIG. 21
# Procedure: as §2, §1, §3
# [4] = tested on: H1975-T790M gefitinib-resistant; assay: H1975 survival and growth with TKI; format: cell-based, human; settings: FIG. 21
# Procedure: as §2, §1, §3
# Hep3B cells [5] = assay: Hep3B subcutaneous tumors in NOD-Scid mice; format: in vivo
# Procedure: Hep3B cells were infected with GFP-luciferase lentivirus. The cells with highest GFP expression were selected by FACS sort, and the resulting population was expanded. Two million hep3B cells mixed with Matrigel were injected subcutaneously in NOD-Scid mice, and measurable signal was obtained after 7 days. Treatment began at 8 days after injection (day 0). Luciferase was measured as per the standard Xenogen protocol. IGFBP3.Fc D3 (i.e., the 3(del3)3 chimera) at 20 mg/kg was injected twice weekly; saline was injected in the control group. Tumor growth was measured twice weekly by measuring the luminescence. […]
# [6] = tested on: PC-9 non-small cell lung cancer cells; assay: PC-9 subcutaneous tumors in NSG mice, daily erlotinib; format: in vivo; settings: chimera D3 plus erlotinib
# Procedure: (§4) 5×10exp6 PC-9 non-small cell lung cancer cells were injected subcutaneously in Nod scid gamma (NSG) mice. […] Erlotinib in 6% captisol was dosed orally daily at 25 mg/kg; IGFBP3Fc (3(del3)3) was dosed intraperitoneally at 25 mg/kg three times per week; control animals were administered vehicle. Dosing was started on day 11; erlotinib and erlotinib plus D3 was discontinued on day 19; D3 injections were discontinued on day 22.
# PC-9 tumors = assay: PC-9 subcutaneous tumors in mice, low dose erlotinib; format: in vivo; settings: erlotinib 25 mg/kg 3 times per week; FIG. 27
# Procedure: as §4
# Subcutaneous PC-9 tumors were generated and measured as above. Chimera D3 was dosed as above; erlotinib was dosed at 25 mg/kg 3 times per week in order to examine the effect of the chimera D3 on the tumor growth with suboptimal erlotinib dosing. The treatment started on day 8 and ended on day 22.
# [7] = number of tumors, increase in the tumor size
# [8] = number of tumors, no measurable tumor
# [9] = number of tumors, partial regression means a 20% or greater decrease in the tumor size
# T1 sequence (P05019 49-118 limits assumed): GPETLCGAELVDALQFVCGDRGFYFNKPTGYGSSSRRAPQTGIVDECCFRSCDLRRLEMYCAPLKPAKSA
molecule,measurement,setting,value
"IGFBP3: insulin-like growth factor-binding protein-3, wild-type (SEQ ID NO: 1) [reference compound]",Kd,IGF-1,0.363 nM
same,EC50,hep3B cells [1]; hep3B,200 nM
same,serum half-life,[2],25 min
B1,hep3B proliferation on co-treatment with doxorubicin,hep3B cells [1]; 0.01 uM doxorubicin plus chimera D3,reduced proliferation even further
same,"hep3B proliferation on co-treatment with erlotinib, sorafenib or afatinib","hep3B cells [1]; 2 uM erlotinib, 2 uM sorafenib, or 0.15 uM afatinib, FIG. 16B",further reduced cell proliferation
same,proliferation of hep3B cells treated with chimera alone vs no inhibitor,hep3B cells [1]; FIG. 16B,reduced significantly
same,IC50,"hep3B cells [1]; read-out: IC50, FBS-stimulated proliferation of hep3B cells",105 nM
same,IC50,"hep3B cells [1]; read-out: IC50, HGF-stimulated proliferation of hep3B cells",47 nM
same,IC50,"hep3B cells [1]; read-out: IC50, IGF1-stimulated proliferation of hep3B cells",28 nM
same,IC50,"hep3B cells [1]; read-out: IC50, bFGF-stimulated proliferation of hep3B cells",69 nM
same,IC50,"hep3B cells [1]; read-out: IC50, nrg-stimulated proliferation of hep3B cells",78 nM
same,"bFGF, IGF1, bFGF/IGF1, HGF and HGF/IGF rescue of erlotinib-treated hep3b cells","hep3B cells [1]; clonal proliferation assay, FIG. 22B",inhibited
same,inhibition of hep3B cells treated with erlotinib,"hep3B cells [1]; combination with erlotinib, FIG. 15, FIG. 16A",synergistically inhibited
same,EC50,hep3B cells [1]; hep3B,85 nM
same,cancer cell survival and growth on addition to TKI,"hep3B cells [1]; hep3B, FIG. 21",further inhibited
same,inhibition with vemurafenib in HT29 cells,"HT29 cells; FIG. 17A isobologram, FIG. 17B",synergistic inhibition
same,cancer cell survival and growth on addition to TKI,"HT29 cells; HT29, FIG. 21",further inhibited
same,A549 growth on addition to cisplatin,[3]; FIG. 18B,further inhibited
same,growth of A549 lung carcinoma cells,"[3]; alone, or in combination with the TK (AZD9291, trametinib), FIG. 18A",reduced the growth
same,decrease of the IC50 of gefitinib,"PC-9 cells; 200 nM D3Fc, PC-9, four-day assay, FIG. 19A",70 fold
same,bFGF and HGF rescue of osimertinib-treated PC-9 cells,PC-9 cells; FIG. 23,inhibited such rescue
same,clonal density assay with gefitinib,"PC-9 cells; PC-9, FIG. 19B",decreased the IC50 and reduced surviving cells
same,IGF1-induced cell survival under gefitinib,"PC-9 cells; PC-9, FIG. 20",dramatically reduced
same,cell growth with bFGF under gefitinib,"PC-9 cells; PC-9, FIG. 20",substantially reduced cell growth
same,cancer cell survival and growth on addition to TKI,"PC-9 cells; PC-9, FIG. 21",further inhibited
same,reduction of the number of PC-9 cells surviving gefitinib,PC-9 cells; addition of chimera D3 to gefitinib,about 100 fold
same,sensitivity of gefitinib-resistant PC-91R cells to gefitinib,PC-91R,restored the cancer cells' sensitivity to gefitinib
same,cancer cell survival and growth on addition to TKI,HUH7,further inhibited
same,cancer cell survival and growth on addition to TKI,A431,further inhibited
same,cancer cell survival and growth on addition to TKI,[4],further inhibited
same,hep3B tumor growth compared with control mice,"Hep3B cells [5]; 20 mg/kg twice weekly, luminescence, FIG. 25",grew more slowly
same,T/C (tumor volume treated/control) ratio,"Hep3B cells [5]; D3 alone, day 25",63%
same,tumor growth inhibition,"Hep3B cells [5]; D3 alone, day 25, p value of 0.0025",37%
same,"Progression, Day 12",Hep3B cells [5]; [7],5
same,"Progression, Day 22",Hep3B cells [5]; [7],4
same,"Complete regression, Day 12",Hep3B cells [5]; [8],2
same,"Complete regression, Day 22",Hep3B cells [5]; [8],3
same,"Partial regression, Day 12",Hep3B cells [5]; [9],1
same,"Partial regression, Day 22",Hep3B cells [5]; [9],1
same,"tumor growth after erlotinib treatment was stopped on day 19, compared to the erlotinib group",[6]; FIG. 26,delayed tumor growth
same,tumor volume of treated to control (T/C),[6]; day 20,32%
same,tumor inhibition on addition of chimera D3 to erlotinib,PC-9 tumors,clearly improved the tumor inhibition
